Assay results taken from the nanobody polyreactivity screen of Harvey et al. (2022).

Experiment: yeast display, Sf9 membrane polyspecificity reagent, FACS + sequencing; frameworks hold sequencing errors
How it was run: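 Genes from sorted yeast were amplified by colony PCR, read by MiSeq 2 × 250 sequencing and filtered on CDR length. These cells carried a synthetic nanobody library in Saccharomyces cerevisiae BJ5465 and were sorted by FACS into low and high (top ~1%) gates on anti-HA and streptavidin fluorescence. Polyreactivity is labelled according to the gate of origin.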

Sequence: QVQLVESGGGLVQAGGSLRLSCAASGRISQGYAMGWYRQAPGKERELVAGISRSGGSTYYADSVKGRFTISRDNAKNTVYLQMNSLKPEDTAVYYCAARVRGRNASDYDYYYWGQGSQVTVSS
- polyreactivity (PSR sort gate): high polyreactivity

Sequence: QVQLVESGGGLVQAGGSLRLSCAASGSIFYYGMGWYRQAPGKERELVAAITRGGSTYYADSVKGRFTISRDNAKNTVYLQMNSLKPEDTAVYYCATGPLVYYSARYSSYVYPYDYWGQGTQVTVSS
- polyreactivity (PSR sort gate): low polyreactivity

Sequence: QVQLVESGGGLVQAGGSLRLSCAASGFTFPTYAMVWYRQAPGKERELVAAITRGGSTYYADSVKGRFTISRDNAKYTVYLQMNSLKPEDTAVYYCAADDPWYEEDYWGQGTQVTVSS
- polyreactivity (PSR sort gate): low polyreactivity

Sequence: QVQLVESGGGLVQAGGSLRLSCAASGITSYGYAMGWYIQAPGKERELVAAISRSGGTTYYADSVKGRFTISRDNAKNTVYLQMNSLKPEDTAVYYCALGKSHRGGGVSKFNYWGQGTQVTVSS
- polyreactivity (PSR sort gate): low polyreactivity

Sequence: QVQLVESGGGLVQAGGSLRLSCAASGFTFHTYAMGWYRQAPGKERELVAAIDSSGGITYYADSVKGRFTISRDTAKNTVYLQMNSLKPEDTAVYYCAAVFLLFGFEWSYDYWGQGTQVTVSS
- polyreactivity (PSR sort gate): low polyreactivity

Sequence: QVQLVESGGGLVQAGGSLRLSCAASGSTFSYYTMGWYRPAPGKERELVAAITRRGDSTYADSVKGRFTISRDNAKNTGYLQMNSLKPEATAVYYCAADASVGVSGMDYWGQGTQVTVSS
- polyreactivity (PSR sort gate): low polyreactivity

Sequence: QVQLVESGGGLVQAGGSLRLSCAASGFIFAYNAMGWYRQAPGKERELVAAISWSGGSTYYADSVKGRFTISRDNAKNTVYLQLNSLKPEDTAVYYCNKYIRYPFKRYGYWGQGTQVTVSS
- polyreactivity (PSR sort gate): high polyreactivity

Sequence: QVQLVESGGGLVQAGGSLRLSCAASGSIFDFYAMGCYRQAPGKERELVAAISGSGGSTYYADSVKGRFTMSRDNAKNTVYLQMNSLKPEDTAVYYCSYYYWGQRTQVTVSS
- polyreactivity (PSR sort gate): low polyreactivity

Sequence: QDQLVESGGGLVQAGGSLRLSCAASGSMLVNNAMGCYRQAPGKERELVAASSKSTGRTYYADSVKGRFTISRDNAKNTVYLQMNSLKPVDTAVFYCYALTHPDKFVYWGQGTQVTVSS
- polyreactivity (PSR sort gate): high polyreactivity

Sequence: QVQLVESGGGLVQAGGSLRLSCAASGITFRGYAMGWYRQAPGKERELVAAINSGGSTNYADAVKGRFTISRDNAKNTVYLQMNSLKPDDPAVYYCAADDYPYGNYYWGQGTQVTVSS
- polyreactivity (PSR sort gate): high polyreactivity

Sequence: QVQLVESGGCLVQAGGSLRLSCAASGITLRYYAMGWYRQAPGKERELDAAISSGGRTYYADSVKGRFTISRDNATKTVYLPLNSLKPEETAVYYCNVVWSVTYDYWGHGTQVTVSS
- polyreactivity (PSR sort gate): high polyreactivity

Sequence: QVQLVESGGGLVQAGGSLRLSCAASGRTFVANTMGWYRQAPGKEREFVAGISRRGGSTYYADSVKGRYTISRDNAKNTVYLQMNSLKPEDPAVYYCAVGTWARYRGLEYDYWGQGTQVTVSS
- polyreactivity (PSR sort gate): high polyreactivity

Sequence: QVQLVESGGGLVQAGGSLRLSCAASGIIFKYYVMGWYRQAPGKERELVAGIRSGGNTYYADSVKGRFTISRDNAKNTVYFQMNSLKPEDTAVYYCNARPQFRFTDSYDYWGQGTQVTVSS
- polyreactivity (PSR sort gate): high polyreactivity

Sequence: QVQLVESGGGLVQAGGSLRLSCAASGRIFTRNVMGWYRQAPGKERELVAAITTNGGSTYYADSVKGRFTISRDNAKNTVYLQMNSLKPEDTAVYYCAKRTVHYTWVYYWGQGTQVTVSS
- polyreactivity (PSR sort gate): high polyreactivity

Sequence: QVQLVESGGGLVQAGGSLRLSCAASGRIFQFNVMGWYRQAPGKERELVAAISRGGGITDYADSVKGRFTISRDNAKNTVYLQMNSLKPEDTAVYYCAAVLPARGYYWGQGTQVTVSS
- polyreactivity (PSR sort gate): high polyreactivity

Sequence: QVQLVESGGGLVQAGGSLRLSCAASGSISIGYTMGWYRQSPGKERDLVATISWSGGNTYYADSVKGRFTIARDNAKNTVYLQINSLKPEDSAVYYFAARWYYYPLLYDYWGQGTQVTVSS
- polyreactivity (PSR sort gate): low polyreactivity

Sequence: QDQLVESGGGLVQAGGSLRLSCAASGRTFDDYAMGWYRQAPGKERELVAAISSSGGSTYYADSVKGRFSISRDNAKNTVYLQMNCLKPDDTAVYYCAADYDWGYWYDYWGQGTQVTVSS
- polyreactivity (PSR sort gate): low polyreactivity

Sequence: QVQLVESGGGLVQAGGSLRFSCAASGSIFKTNAIGWYRQAPGKERELVAAIRASGGSTYYADSVKGRFTISRDNAKNTVYLQMNSLKPEDTAVYYCAARVSGSRKYYYWGQGTQVTVSS
- polyreactivity (PSR sort gate): high polyreactivity

Sequence: QVQLVESGGGLVQAGGSLRLSCAASGSIFTPYAMGWYRQAPGKESELVAAIRSGTSTNYADSVKGRFTISRDNAKNTVYLQMNSLKPEDTAVYYCAAVYWSRFYVRYDYWGQGTQVTVSS
- polyreactivity (PSR sort gate): high polyreactivity

Sequence: QVQLVESGGGLVQAGGSLRLSCAASGRIFDIYAMGWYRQAPGKERELVAGITSVGSTNYADSVKGRFTISRDNEKNTVYLQMNSLKPEDTAVYYCAAKAYFSTSPYHREHDSWGQGTQVTVSS
- polyreactivity (PSR sort gate): low polyreactivity

Sequence: QVQLVESGGCLVQARGSLRLSCAASGSTFGTYAMGWYRQPPGKERELVAAIRWSGVSTYYADSVKGRFTISRDNAKNTVYLEMNSLKPEDTAVYYCAVALWVRGTYIYEYWGQGSQVTVSS
- polyreactivity (PSR sort gate): high polyreactivity

Sequence: QVQLVESGGVLVQAGGSLRLSCAASGYIFGNYAMGWYRQAPGNERELVASIDSGGSTNYADSVKGRFTISRDNAKNTVYLQKNSLKPEDTAVYYWAARPTWNRGRSRKYWRYNYWAQGTQVTVSS
- polyreactivity (PSR sort gate): high polyreactivity

Sequence: QVQLVESGGGIVQEAGSLSLSCAASRLTFTTYNMGWSRPAPGKERELVAALSSRGGSTYYADSVKGRFTISRDNAKNTVYLEKNSLKPEDTAVDYCNAPRPHRMDWGQGTQVTVSS
- polyreactivity (PSR sort gate): high polyreactivity

Sequence: QVQRVESGGGLVQAGGSLRLSCADSGFIFRRYAMGWYRQAPGKERELVAAITSSGGTTYYADSVKGRFTISRDNAKNTVYLQMNSLKPEDTAVYYCNAVRGVYARRSDYWGQGTEVTVSS
- polyreactivity (PSR sort gate): high polyreactivity

Sequence: QVQLVESGGGLFQAGGSLRLNCAASGSIFGSYAMVWYIQAPGKELELVAAITSDGITNYADSVKGRFTISRDNEKNTDYLQMNSLKPEDTAVYYCAAPGPLGGSDYWGQGTQVTVSS
- polyreactivity (PSR sort gate): low polyreactivity

Sequence: QVQLVESGGGLVQAGGSLRLSCAASGFTFGAYAMGWYRHAPGKERELVAAINRRGGSTYYADSVKGRFTISRENAKNTVYLQMKSLKPEDTAVYYCNAPFGYDYWGQGTQVTVSS
- polyreactivity (PSR sort gate): high polyreactivity

Sequence: QVQLVESGGGLVQAGGSLRLSCAASGSKFYTNVMGWYRQAPGKERELVARIDSGGSTNYADSVKGRFTISRDNAKNTVYLQMNSLKPEDTAVYYCAADWYIYDYWGQGTQVTVSS
- polyreactivity (PSR sort gate): low polyreactivity

Sequence: QEQLQESGGCPVLAGGSLRLSCAASGTIFVRLDMGWYRQAPGKEREFVATIGSGSSTYYADSVKGSFTISRDNVKNTVYLQMNSLKPEDTAVYYCAVSAAEQSRHYYWDQGTQVTVSS
- polyreactivity (PSR sort gate): low polyreactivity

Sequence: QVQLVESGGGLVQAGGSLRISCAASGSTYYTNTMGWYRQAPGKERELVADINGSGGSTYYADSVKGRITISRDNAKNTVYLQMNSLKPEDTAVYYCAAGSLQVAIRYDYWGQGTQVTVSS
- polyreactivity (PSR sort gate): low polyreactivity

Sequence: QVQLVESGGGLVQAGGSLRLSCAASARNFGYYAMGWYRPAPGKERELVAAISSGGNTYYADSVKGRFTISRDNAKNTVYLQMNSLKPEDTAVYYCNVVYVGWQYGYDYWGQGTQVTVSS
- polyreactivity (PSR sort gate): low polyreactivity

Sequence: QVHLVESGGGLVQAGGSLRLSCAASGRTFYSNAMGWYRQPPGKERELVAAINSGGDTYYADSVKGRFTISRDNAKNTVYLQMNSLTPEDTAVYYCADDYYWEMDSWGQGTQVTVSS
- polyreactivity (PSR sort gate): low polyreactivity

Sequence: QVQLVESGGGLVQAGGSLSLSCAASGIIFYDYAMGWYRQAPGKERELVAVISRSGGSTYYADSVKGRFTISRDNAKNTVYLQMNSLNPEDTAVYYCARAYSLRVVTGDYWGQGTQVTVSS
- polyreactivity (PSR sort gate): high polyreactivity

Sequence: QVQLVESGGGLVQAGGSLRLSCAASGSTFGDYAMGWYRQAPGKERELVAAISFSDDSTYYADSVKGRFTISRDNAKNTVYLQMNSLKPEDTAVYYCAKEAEYSTPGGDYWGQGTQVTVSS
- polyreactivity (PSR sort gate): low polyreactivity

Sequence: QDQLVESGGGLVQAGGSLRLSCAASGFTFTRNAMGWYRQAPGKERELVAAISRGGSTNYADSVKGRFTISRDNAKNTVYLQMNSLKPEDTAVYYCAKVRTRGTPGVDYYYWGQGTQVTVSS
- polyreactivity (PSR sort gate): high polyreactivity

Sequence: QVQLVESGGGLVQAGGSLRLSCAASGSIFGINAMGWYRQAPGKERELVAAITNSGANTYYADSVKGRFTISRDNAKNTVYLQMNSLKPEDTAVYYCATDFIGVIYDYWGQGTQVTVSS
- polyreactivity (PSR sort gate): low polyreactivity

Sequence: QVQLVESGGGLDQAGGRLRLSSAASGYTFRNYAKGLYRQATGQERELVAAITSSTSSTYYADSVKGRFTISRDNAKNTVYLQMNSLKPEDTAVYYCNRVWSPYMDYWGQGTQVTVSS
- polyreactivity (PSR sort gate): high polyreactivity

Sequence: QVQLVESGGGLVQAGGSLRLSCAASGRIFLSNAMGWYIQAPGKEREFVAAISWRGGSTYYADSVKGRFTISRDNAKNTVYLQMNSLKPEDTAVYYCAVDVRYYYGRSYDYWGQGTQVTVSS
- polyreactivity (PSR sort gate): high polyreactivity

Sequence: QVQLVESGGGLVQAGGSLRLSSAASGRTLFDNAMGWYRQAPGKEREWVAAIRSDGNTNYADSVKGRFTISRDNAKNTVYLQMNSLKPEDTAVYYCNARSYVGSSRDNYWGQGTQVTVSS
- polyreactivity (PSR sort gate): low polyreactivity

Sequence: QVQLVESGGGLVQAGGSLRLSCAASGFTFIKNAMGWYRPAPGKERELVAAINSGGRTYYADSVKGRFTISRDNAKNTVYFQMNSLIPEDTAVYYCAARYTRDYYWGQGTQVTVSS
- polyreactivity (PSR sort gate): high polyreactivity

Sequence: QVQLVESGRGLFQAGGSLRLSCAASGSTFTVNTMGWYRQAPGKERELVDAITKNGANTYYADSVKGRFTISRDNAKNTVYLQMNILKPEDTAVYYCAALYVYGKSYSRWLVELDYWGQGTQVTVSS
- polyreactivity (PSR sort gate): low polyreactivity

Sequence: QVQLVESGGGLVQAGGSLRLSCAASGLIFGGTAMGWYRQAPGKERELVAAITYRTGSTYYADSVKGRFTISRDNAKNTVYLQMNSLKPEDTAVYYCAAAVSLGYPVAFYYWGQGTQVTVSS
- polyreactivity (PSR sort gate): low polyreactivity

Sequence: QVQLVESGGGLVQAGGSLRLSCAASGLTFKYYAMGWYRQAPGKERELVAAINRSGSSTYYADSVKGRFTISRDNAKNTVYLQMNSLKPEDTAVYYCAKDSFTSTRQYDYWGQGTQVTVSS
- polyreactivity (PSR sort gate): low polyreactivity

Sequence: QDQHVESGGGLVQAGGSLRLRCSASVRTYFDYDMGRYRQAPGKERELVAAISQSGGSTYYADSVKGRFTISRDNAKYTFYLVMNSLKPEDTGVYECNAYYGYGHRIYDYWGQGTQVTVSS
- polyreactivity (PSR sort gate): high polyreactivity
